Assay [1] has as its target human GLP-1 receptor (hGLP-1R) (human, UniProt P43220 24-463). In words: cell-based or functional assay.
Assay [2] addresses human glucagon receptor (hGCGR) (human, UniProt P47871 26-477). Briefly: cell-based or functional assay.

Starred links: 1 amine or outer side, 2 acyl side, 3 side chain; linkers in the order of their positions; H or OH if unused. Non-standard residues stand in square brackets, D forms with d. Groups on a side chain read outwards from the residue. No end group written: not given here. *: point of attachment. C20 diacid = O=C(O)CCCCCCCCCCCCCCCCCCC(=O)*; C18 diacid = O=C(O)CCCCCCCCCCCCCCCCC(=O)*; γGlu = O=C(O)[C@H](CCC(=O)[*:2])N[*:1]; αMeF = C[C@](N)(Cc1ccccc1)C(=O)O; AEEA = NCCOCCOCC(=O)O; Aib = CC(C)(N)C(=O)O

human glucagon receptor (hGCGR), sequence (P47871 26-477): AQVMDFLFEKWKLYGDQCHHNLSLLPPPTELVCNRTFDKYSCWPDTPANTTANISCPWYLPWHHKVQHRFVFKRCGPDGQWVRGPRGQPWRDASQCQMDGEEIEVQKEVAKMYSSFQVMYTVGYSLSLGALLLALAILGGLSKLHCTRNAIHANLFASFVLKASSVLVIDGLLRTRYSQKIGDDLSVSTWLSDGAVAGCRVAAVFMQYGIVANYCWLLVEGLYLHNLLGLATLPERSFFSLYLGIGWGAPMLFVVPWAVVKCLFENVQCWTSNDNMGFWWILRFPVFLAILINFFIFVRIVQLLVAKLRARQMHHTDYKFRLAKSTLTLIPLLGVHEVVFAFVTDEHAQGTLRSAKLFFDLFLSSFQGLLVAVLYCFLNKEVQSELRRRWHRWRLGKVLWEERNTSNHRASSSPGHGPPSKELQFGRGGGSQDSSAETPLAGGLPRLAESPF

B1: Peptide 3 (peptide)
peptide: HSQGS[αMeF]TSDVSK[αMeF]LDSK([γGlu-C18 diacid])AAQDFVQWIANT-NH2
modifications: N-terminus assumed
SMILES: CC[C@H](C)[C@H](NC(=O)[C@H](Cc1c[nH]c2ccccc12)NC(=O)[C@H](CCC(N)=O)NC(=O)[C@@H](NC(=O)[C@H](Cc1ccccc1)NC(=O)[C@H](CC(=O)O)NC(=O)[C@H](CCC(N)=O)NC(=O)[C@H](C)NC(=O)[C@H](C)NC(=O)[C@H](CCCCNC(=O)CC[C@H](NC(=O)CCCCCCCCCCCCCCCCC(=O)O)C(=O)O)NC(=O)[C@H](CO)NC(=O)[C@H](CC(=O)O)NC(=O)[C@H](CC(C)C)NC(=O)[C@](C)(Cc1ccccc1)NC(=O)[C@H](CCCCN)NC(=O)[C@H](CO)NC(=O)[C@@H](NC(=O)[C@H](CC(=O)O)NC(=O)[C@H](CO)NC(=O)[C@@H](NC(=O)[C@](C)(Cc1ccccc1)NC(=O)[C@H](CO)NC(=O)CNC(=O)[C@H](CCC(N)=O)NC(=O)[C@H](CO)NC(=O)[C@@H](N)Cc1c[nH]cn1)[C@@H](C)O)C(C)C)C(C)C)C(=O)N[C@@H](C)C(=O)N[C@@H](CC(N)=O)C(=O)N[C@H](C(N)=O)[C@@H](C)O
For B1, the “hGLP-1R EC50 (pM)” value in assay [1] is 69 pM. Moreover, the “hGluc-R EC50 (pM)” value in assay [2] is 149 pM.

B2: Peptide 137 (peptide)
peptide: H[Aib]QGTFTSDVSK[αMeF]LDSK([γGlu-γGlu-AEEA-AEEA-γGlu-γGlu-C18 diacid])RAQDFVRWLLEG[Aib]-OH
modifications: N-terminus assumed
SMILES: CC(C)C[C@H](NC(=O)[C@H](CC(C)C)NC(=O)[C@H](Cc1c[nH]c2ccccc12)NC(=O)[C@H](CCCNC(=N)N)NC(=O)[C@@H](NC(=O)[C@H](Cc1ccccc1)NC(=O)[C@H](CC(=O)O)NC(=O)[C@H](CCC(N)=O)NC(=O)[C@H](C)NC(=O)[C@H](CCCNC(=N)N)NC(=O)[C@H](CCCCNC(=O)CC[C@H](NC(=O)CC[C@H](NC(=O)COCCOCCNC(=O)COCCOCCNC(=O)CC[C@H](NC(=O)CC[C@H](NC(=O)CCCCCCCCCCCCCCCCC(=O)O)C(=O)O)C(=O)O)C(=O)O)C(=O)O)NC(=O)[C@H](CO)NC(=O)[C@H](CC(=O)O)NC(=O)[C@H](CC(C)C)NC(=O)[C@](C)(Cc1ccccc1)NC(=O)[C@H](CCCCN)NC(=O)[C@H](CO)NC(=O)[C@@H](NC(=O)[C@H](CC(=O)O)NC(=O)[C@H](CO)NC(=O)[C@@H](NC(=O)[C@H](Cc1ccccc1)NC(=O)[C@@H](NC(=O)CNC(=O)[C@H](CCC(N)=O)NC(=O)C(C)(C)NC(=O)[C@@H](N)Cc1c[nH]cn1)[C@@H](C)O)[C@@H](C)O)C(C)C)C(C)C)C(=O)N[C@@H](CCC(=O)O)C(=O)NCC(=O)NC(C)(C)C(=O)O
For B2, the “hGLP-1R EC50 (pM)” value in assay [1] stood at 143 pM. The “hGluc-R EC50 (pM)” value in assay [2] was 268 pM.

B3: Peptide 138 (peptide)
peptide: H[Aib]QGTFTSDVSK[αMeF]LDSK([γGlu-γGlu-AEEA-AEEA-γGlu-γGlu-C18 diacid])RAQDFVRWLLE[Aib]G-OH
modifications: N-terminus assumed
SMILES: CC(C)C[C@H](NC(=O)[C@H](Cc1c[nH]c2ccccc12)NC(=O)[C@H](CCCNC(=N)N)NC(=O)[C@@H](NC(=O)[C@H](Cc1ccccc1)NC(=O)[C@H](CC(=O)O)NC(=O)[C@H](CCC(N)=O)NC(=O)[C@H](C)NC(=O)[C@H](CCCNC(=N)N)NC(=O)[C@H](CCCCNC(=O)CC[C@H](NC(=O)CC[C@H](NC(=O)COCCOCCNC(=O)COCCOCCNC(=O)CC[C@H](NC(=O)CC[C@H](NC(=O)CCCCCCCCCCCCCCCCC(=O)O)C(=O)O)C(=O)O)C(=O)O)C(=O)O)NC(=O)[C@H](CO)NC(=O)[C@H](CC(=O)O)NC(=O)[C@H](CC(C)C)NC(=O)[C@](C)(Cc1ccccc1)NC(=O)[C@H](CCCCN)NC(=O)[C@H](CO)NC(=O)[C@@H](NC(=O)[C@H](CC(=O)O)NC(=O)[C@H](CO)NC(=O)[C@@H](NC(=O)[C@H](Cc1ccccc1)NC(=O)[C@@H](NC(=O)CNC(=O)[C@H](CCC(N)=O)NC(=O)C(C)(C)NC(=O)[C@@H](N)Cc1c[nH]cn1)[C@@H](C)O)[C@@H](C)O)C(C)C)C(C)C)C(=O)N[C@@H](CC(C)C)C(=O)N[C@@H](CCC(=O)O)C(=O)NC(C)(C)C(=O)NCC(=O)O
Regarding B3, the “hGLP-1R EC50 (pM)” value in assay [1] came out at 104 pM. Also, the “hGluc-R EC50 (pM)” value in assay [2] was found to be 184 pM.

B4: Peptide 142 (peptide)
peptide: H[Aib]QGTFTSDVSK[αMeF]LDSK([AEEA-AEEA-γGlu-C18 diacid])RARDFVAWLLE[Aib]G-OH
modifications: N-terminus assumed
SMILES: CC(C)C[C@H](NC(=O)[C@H](Cc1c[nH]c2ccccc12)NC(=O)[C@H](C)NC(=O)[C@@H](NC(=O)[C@H](Cc1ccccc1)NC(=O)[C@H](CC(=O)O)NC(=O)[C@H](CCCNC(=N)N)NC(=O)[C@H](C)NC(=O)[C@H](CCCNC(=N)N)NC(=O)[C@H](CCCCNC(=O)COCCOCCNC(=O)COCCOCCNC(=O)CC[C@H](NC(=O)CCCCCCCCCCCCCCCCC(=O)O)C(=O)O)NC(=O)[C@H](CO)NC(=O)[C@H](CC(=O)O)NC(=O)[C@H](CC(C)C)NC(=O)[C@](C)(Cc1ccccc1)NC(=O)[C@H](CCCCN)NC(=O)[C@H](CO)NC(=O)[C@@H](NC(=O)[C@H](CC(=O)O)NC(=O)[C@H](CO)NC(=O)[C@@H](NC(=O)[C@H](Cc1ccccc1)NC(=O)[C@@H](NC(=O)CNC(=O)[C@H](CCC(N)=O)NC(=O)C(C)(C)NC(=O)[C@@H](N)Cc1c[nH]cn1)[C@@H](C)O)[C@@H](C)O)C(C)C)C(C)C)C(=O)N[C@@H](CC(C)C)C(=O)N[C@@H](CCC(=O)O)C(=O)NC(C)(C)C(=O)NCC(=O)O
In the case of B4, the “hGLP-1R EC50 (pM)” value in assay [1] was determined as 59.4 pM. Also, the “hGluc-R EC50 (pM)” value in assay [2] worked out at 108 pM.

B5: Peptide 136 (peptide)
peptide: H[Aib]QGTFTSDVSK[αMeF]LDSK([γGlu-γGlu-AEEA-AEEA-γGlu-γGlu-C18 diacid])RARDFVRWLLE[Aib]G-OH
modifications: N-terminus assumed
SMILES: CC(C)C[C@H](NC(=O)[C@H](Cc1c[nH]c2ccccc12)NC(=O)[C@H](CCCNC(=N)N)NC(=O)[C@@H](NC(=O)[C@H](Cc1ccccc1)NC(=O)[C@H](CC(=O)O)NC(=O)[C@H](CCCNC(=N)N)NC(=O)[C@H](C)NC(=O)[C@H](CCCNC(=N)N)NC(=O)[C@H](CCCCNC(=O)CC[C@H](NC(=O)CC[C@H](NC(=O)COCCOCCNC(=O)COCCOCCNC(=O)CC[C@H](NC(=O)CC[C@H](NC(=O)CCCCCCCCCCCCCCCCC(=O)O)C(=O)O)C(=O)O)C(=O)O)C(=O)O)NC(=O)[C@H](CO)NC(=O)[C@H](CC(=O)O)NC(=O)[C@H](CC(C)C)NC(=O)[C@](C)(Cc1ccccc1)NC(=O)[C@H](CCCCN)NC(=O)[C@H](CO)NC(=O)[C@@H](NC(=O)[C@H](CC(=O)O)NC(=O)[C@H](CO)NC(=O)[C@@H](NC(=O)[C@H](Cc1ccccc1)NC(=O)[C@@H](NC(=O)CNC(=O)[C@H](CCC(N)=O)NC(=O)C(C)(C)NC(=O)[C@@H](N)Cc1c[nH]cn1)[C@@H](C)O)[C@@H](C)O)C(C)C)C(C)C)C(=O)N[C@@H](CC(C)C)C(=O)N[C@@H](CCC(=O)O)C(=O)NC(C)(C)C(=O)NCC(=O)O
For B5, in assay [1], the “hGLP-1R EC50 (pM)” value is 45.2 pM. Besides, the “hGluc-R EC50 (pM)” value in assay [2] worked out at 509 pM.

B6: Peptide 42 (peptide)
peptide: H[Aib]QGTFTSDVSK[αMeF]LDSK([AEEA-AEEA-γGlu-C18 diacid])RAQDFVQ[Aib]LVAT-OH
modifications: N-terminus assumed
SMILES: CC(C)C[C@H](NC(=O)C(C)(C)NC(=O)[C@H](CCC(N)=O)NC(=O)[C@@H](NC(=O)[C@H](Cc1ccccc1)NC(=O)[C@H](CC(=O)O)NC(=O)[C@H](CCC(N)=O)NC(=O)[C@H](C)NC(=O)[C@H](CCCNC(=N)N)NC(=O)[C@H](CCCCNC(=O)COCCOCCNC(=O)COCCOCCNC(=O)CC[C@H](NC(=O)CCCCCCCCCCCCCCCCC(=O)O)C(=O)O)NC(=O)[C@H](CO)NC(=O)[C@H](CC(=O)O)NC(=O)[C@H](CC(C)C)NC(=O)[C@](C)(Cc1ccccc1)NC(=O)[C@H](CCCCN)NC(=O)[C@H](CO)NC(=O)[C@@H](NC(=O)[C@H](CC(=O)O)NC(=O)[C@H](CO)NC(=O)[C@@H](NC(=O)[C@H](Cc1ccccc1)NC(=O)[C@@H](NC(=O)CNC(=O)[C@H](CCC(N)=O)NC(=O)C(C)(C)NC(=O)[C@@H](N)Cc1c[nH]cn1)[C@@H](C)O)[C@@H](C)O)C(C)C)C(C)C)C(=O)N[C@H](C(=O)N[C@@H](C)C(=O)N[C@H](C(=O)O)[C@@H](C)O)C(C)C
Consider B6, for which the “hGLP-1R EC50 (pM)” value in assay [1] came to 665 pM. Also, the “hGluc-R EC50 (pM)” value in assay [2] came to 8190 pM.

B7: Peptide 141 (peptide)
peptide: H[Aib]QGTFTSDVSK[αMeF]LDSK([AEEA-AEEA-γGlu-C18 diacid])RAQDFVAWLLE[Aib]G-OH
modifications: N-terminus assumed
SMILES: CC(C)C[C@H](NC(=O)[C@H](Cc1c[nH]c2ccccc12)NC(=O)[C@H](C)NC(=O)[C@@H](NC(=O)[C@H](Cc1ccccc1)NC(=O)[C@H](CC(=O)O)NC(=O)[C@H](CCC(N)=O)NC(=O)[C@H](C)NC(=O)[C@H](CCCNC(=N)N)NC(=O)[C@H](CCCCNC(=O)COCCOCCNC(=O)COCCOCCNC(=O)CC[C@H](NC(=O)CCCCCCCCCCCCCCCCC(=O)O)C(=O)O)NC(=O)[C@H](CO)NC(=O)[C@H](CC(=O)O)NC(=O)[C@H](CC(C)C)NC(=O)[C@](C)(Cc1ccccc1)NC(=O)[C@H](CCCCN)NC(=O)[C@H](CO)NC(=O)[C@@H](NC(=O)[C@H](CC(=O)O)NC(=O)[C@H](CO)NC(=O)[C@@H](NC(=O)[C@H](Cc1ccccc1)NC(=O)[C@@H](NC(=O)CNC(=O)[C@H](CCC(N)=O)NC(=O)C(C)(C)NC(=O)[C@@H](N)Cc1c[nH]cn1)[C@@H](C)O)[C@@H](C)O)C(C)C)C(C)C)C(=O)N[C@@H](CC(C)C)C(=O)N[C@@H](CCC(=O)O)C(=O)NC(C)(C)C(=O)NCC(=O)O
B7: the “hGLP-1R EC50 (pM)” value in assay [1] stood at 264 pM. Also, in assay [2], the “hGluc-R EC50 (pM)” value came to 392 pM.

B8: Peptide 139 (peptide)
peptide: H[Aib]QGTFTSDVSK[αMeF]LDSK([γGlu-γGlu-AEEA-AEEA-γGlu-γGlu-C20 diacid])RAQDFVRWLLE[Aib]G-OH
For the molecule B8, the “hGLP-1R EC50 (pM)” value in assay [1] stood at 630 pM. In assay [2], the “hGluc-R EC50 (pM)” value came to 984 pM.
